Values belong to the binder of their own block, whether it stands above or below them.
Legend:
Rac1Q61L, recombinant = Rac1Q61L, recombinant (human, UniProt P63000 1-192, Q61L); test: ITC
SAXS = target: the molecule itself; test: SAXS
SEC-MALS = target: the molecule itself; test: SEC-MALS
[1] = target: Rab35BD (MiniBAR225-553), recombinant (human, UniProt O15063 225-553); test: ITC

Kd (Rac1Q61L, recombinant): ~0.2 µM
B1: Rac1BD-Rab35BD (MiniBAR70-553), recombinant (domain or fragment)
chain: not shown
stoichiometry N (SAXS): 2

B2: Rac1BD (MiniBAR70-208), recombinant (domain or fragment)
chain: not shown
stoichiometry N (SEC-MALS): 2

Kd [1]: ~2 µM
B3: Rab35-GPPNHP, recombinant (natural protein)
chain: not shown

Reference: doi:10.1101/2023.07.24.550339 (bioRxiv, 2023)
